Each binder was assayed against T1, CD3 epsilon homodimer protein (UniProt P07766 23-126) (assay: SPR Biacore T200, CD3 epsilon homodimer on chip, antibody as analyte;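 note: homodimer amine-coupled to a CM4 sensor chip, run at 25 °C in HBS-EP+ buffer, with kinetic parameters derived in Biacore T200 Evaluation Software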).
T1 construct: also called CD3 (CD3 epsilon)
T1 sequence (P07766 23-126): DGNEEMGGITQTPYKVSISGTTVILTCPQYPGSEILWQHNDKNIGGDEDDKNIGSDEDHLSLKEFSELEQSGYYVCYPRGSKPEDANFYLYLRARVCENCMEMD

Row | KD ratio (KD of CE115HA000 / KD of altered form) | Binder
1 | 1.22 | CE115HA000 H chain altered form Y58S (antibody, human IgG1, kappa, L234A L235A, N297A, name in Kabat numbering, one-arm antibody) heavy: QVQLVESGGGVVQPGRSLRLSCAASGFTFSNAWMHWVRQAPGKGLEWVAQIKAKSNNYATSYAESVKGRFTISRDDSKNSLYLQMNSLKTEDTAVYYCRYVHYGAYYGVDAWGQGTTVTVSSASTKGPSVFPLAPSSKSTSGGTAALGCLVKDYFPEPVTVSWNSGALTSGVHTFPAVLQSSGLYSLSSVVTVPSSSLGTQTYICNVNHKPSNTKVDKKVEPKSCDKTHTCPPCPAPEAAGGPSVFLFPPKPKDTLMISRTPEVTCVVVDVSHEDPEVKFNWYVDGVEVHNAKTKPREEQYASTYRVVSVLTVLHQDWLNGKEYKCKVSNKALPAPIEKTISKAKGQPREPQVYTLPPSRCELTKNQVSLSCAVKGFYPSDIAVEWESNGQPENNYKTTPPVLDSDGSFFLVSKLTVDKSRWQQGNVFSCSVMHEALHNHYTQKSLSLSPDYKDDDDK EPKSSDKTHTCPPCPAPELLGGPSVFLFPPKPKDTLMISRTPEVTCVVVDVSHEDPEVKFNWYVDGVEVHNAKTKPREEQYNSTYRVVSVLTVLHQDWLNGKEYKCKVSNKALPAPIEKTISKAKGQPREPQVCTLPPSRDELTKNQVSLWCLVKGFYPSDIAVEWESNGQPENNYKTTPPVLDSDGSFFLYSKLTVDKSRWQQGNVFSCSVMHEALHNRYTQKSLSLSP light: DIVMTQSPLSLPVTPGEPASISCRSSQSLVHSNRNTYLHWYQQKPGQAPRLLIYKVSNRFSGVPDRFSGSGSGTDFTLKISRVEAEDVGVYYCGQGTQVPYTFGQGTKLEIKRTVAAPSVFIFPPSDEQLKSGTASVVCLLNNFYPREAKVQWKVDNALQSGNSQESVTEQDSKDSTYSLSSTLTLSKADYEKHKVYACEVTHQGLSSPVTKSFNRGEC
2 | 0.66 | CE115HA000 H chain altered form Y59D (antibody, human IgG1, kappa, L234A L235A, N297A, name in Kabat numbering, one-arm antibody) heavy: QVQLVESGGGVVQPGRSLRLSCAASGFTFSNAWMHWVRQAPGKGLEWVAQIKAKSNNYATYDAESVKGRFTISRDDSKNSLYLQMNSLKTEDTAVYYCRYVHYGAYYGVDAWGQGTTVTVSSASTKGPSVFPLAPSSKSTSGGTAALGCLVKDYFPEPVTVSWNSGALTSGVHTFPAVLQSSGLYSLSSVVTVPSSSLGTQTYICNVNHKPSNTKVDKKVEPKSCDKTHTCPPCPAPEAAGGPSVFLFPPKPKDTLMISRTPEVTCVVVDVSHEDPEVKFNWYVDGVEVHNAKTKPREEQYASTYRVVSVLTVLHQDWLNGKEYKCKVSNKALPAPIEKTISKAKGQPREPQVYTLPPSRCELTKNQVSLSCAVKGFYPSDIAVEWESNGQPENNYKTTPPVLDSDGSFFLVSKLTVDKSRWQQGNVFSCSVMHEALHNHYTQKSLSLSPDYKDDDDK EPKSSDKTHTCPPCPAPELLGGPSVFLFPPKPKDTLMISRTPEVTCVVVDVSHEDPEVKFNWYVDGVEVHNAKTKPREEQYNSTYRVVSVLTVLHQDWLNGKEYKCKVSNKALPAPIEKTISKAKGQPREPQVCTLPPSRDELTKNQVSLWCLVKGFYPSDIAVEWESNGQPENNYKTTPPVLDSDGSFFLYSKLTVDKSRWQQGNVFSCSVMHEALHNRYTQKSLSLSP light: DIVMTQSPLSLPVTPGEPASISCRSSQSLVHSNRNTYLHWYQQKPGQAPRLLIYKVSNRFSGVPDRFSGSGSGTDFTLKISRVEAEDVGVYYCGQGTQVPYTFGQGTKLEIKRTVAAPSVFIFPPSDEQLKSGTASVVCLLNNFYPREAKVQWKVDNALQSGNSQESVTEQDSKDSTYSLSSTLTLSKADYEKHKVYACEVTHQGLSSPVTKSFNRGEC
3 | 0.61 | CE115HA000 H chain altered form Y59E (antibody, human IgG1, kappa, L234A L235A, N297A, name in Kabat numbering, one-arm antibody) heavy: QVQLVESGGGVVQPGRSLRLSCAASGFTFSNAWMHWVRQAPGKGLEWVAQIKAKSNNYATYEAESVKGRFTISRDDSKNSLYLQMNSLKTEDTAVYYCRYVHYGAYYGVDAWGQGTTVTVSSASTKGPSVFPLAPSSKSTSGGTAALGCLVKDYFPEPVTVSWNSGALTSGVHTFPAVLQSSGLYSLSSVVTVPSSSLGTQTYICNVNHKPSNTKVDKKVEPKSCDKTHTCPPCPAPEAAGGPSVFLFPPKPKDTLMISRTPEVTCVVVDVSHEDPEVKFNWYVDGVEVHNAKTKPREEQYASTYRVVSVLTVLHQDWLNGKEYKCKVSNKALPAPIEKTISKAKGQPREPQVYTLPPSRCELTKNQVSLSCAVKGFYPSDIAVEWESNGQPENNYKTTPPVLDSDGSFFLVSKLTVDKSRWQQGNVFSCSVMHEALHNHYTQKSLSLSPDYKDDDDK EPKSSDKTHTCPPCPAPELLGGPSVFLFPPKPKDTLMISRTPEVTCVVVDVSHEDPEVKFNWYVDGVEVHNAKTKPREEQYNSTYRVVSVLTVLHQDWLNGKEYKCKVSNKALPAPIEKTISKAKGQPREPQVCTLPPSRDELTKNQVSLWCLVKGFYPSDIAVEWESNGQPENNYKTTPPVLDSDGSFFLYSKLTVDKSRWQQGNVFSCSVMHEALHNRYTQKSLSLSP light: DIVMTQSPLSLPVTPGEPASISCRSSQSLVHSNRNTYLHWYQQKPGQAPRLLIYKVSNRFSGVPDRFSGSGSGTDFTLKISRVEAEDVGVYYCGQGTQVPYTFGQGTKLEIKRTVAAPSVFIFPPSDEQLKSGTASVVCLLNNFYPREAKVQWKVDNALQSGNSQESVTEQDSKDSTYSLSSTLTLSKADYEKHKVYACEVTHQGLSSPVTKSFNRGEC
4 | 0.74 | CE115HA000 H chain altered form Y59A (antibody, human IgG1, kappa, L234A L235A, N297A, name in Kabat numbering, one-arm antibody) heavy: QVQLVESGGGVVQPGRSLRLSCAASGFTFSNAWMHWVRQAPGKGLEWVAQIKAKSNNYATYAAESVKGRFTISRDDSKNSLYLQMNSLKTEDTAVYYCRYVHYGAYYGVDAWGQGTTVTVSSASTKGPSVFPLAPSSKSTSGGTAALGCLVKDYFPEPVTVSWNSGALTSGVHTFPAVLQSSGLYSLSSVVTVPSSSLGTQTYICNVNHKPSNTKVDKKVEPKSCDKTHTCPPCPAPEAAGGPSVFLFPPKPKDTLMISRTPEVTCVVVDVSHEDPEVKFNWYVDGVEVHNAKTKPREEQYASTYRVVSVLTVLHQDWLNGKEYKCKVSNKALPAPIEKTISKAKGQPREPQVYTLPPSRCELTKNQVSLSCAVKGFYPSDIAVEWESNGQPENNYKTTPPVLDSDGSFFLVSKLTVDKSRWQQGNVFSCSVMHEALHNHYTQKSLSLSPDYKDDDDK EPKSSDKTHTCPPCPAPELLGGPSVFLFPPKPKDTLMISRTPEVTCVVVDVSHEDPEVKFNWYVDGVEVHNAKTKPREEQYNSTYRVVSVLTVLHQDWLNGKEYKCKVSNKALPAPIEKTISKAKGQPREPQVCTLPPSRDELTKNQVSLWCLVKGFYPSDIAVEWESNGQPENNYKTTPPVLDSDGSFFLYSKLTVDKSRWQQGNVFSCSVMHEALHNRYTQKSLSLSP light: DIVMTQSPLSLPVTPGEPASISCRSSQSLVHSNRNTYLHWYQQKPGQAPRLLIYKVSNRFSGVPDRFSGSGSGTDFTLKISRVEAEDVGVYYCGQGTQVPYTFGQGTKLEIKRTVAAPSVFIFPPSDEQLKSGTASVVCLLNNFYPREAKVQWKVDNALQSGNSQESVTEQDSKDSTYSLSSTLTLSKADYEKHKVYACEVTHQGLSSPVTKSFNRGEC
5 | 0.79 | CE115HA000 H chain altered form Y59S (antibody, human IgG1, kappa, L234A L235A, N297A, name in Kabat numbering, one-arm antibody) heavy: QVQLVESGGGVVQPGRSLRLSCAASGFTFSNAWMHWVRQAPGKGLEWVAQIKAKSNNYATYSAESVKGRFTISRDDSKNSLYLQMNSLKTEDTAVYYCRYVHYGAYYGVDAWGQGTTVTVSSASTKGPSVFPLAPSSKSTSGGTAALGCLVKDYFPEPVTVSWNSGALTSGVHTFPAVLQSSGLYSLSSVVTVPSSSLGTQTYICNVNHKPSNTKVDKKVEPKSCDKTHTCPPCPAPEAAGGPSVFLFPPKPKDTLMISRTPEVTCVVVDVSHEDPEVKFNWYVDGVEVHNAKTKPREEQYASTYRVVSVLTVLHQDWLNGKEYKCKVSNKALPAPIEKTISKAKGQPREPQVYTLPPSRCELTKNQVSLSCAVKGFYPSDIAVEWESNGQPENNYKTTPPVLDSDGSFFLVSKLTVDKSRWQQGNVFSCSVMHEALHNHYTQKSLSLSPDYKDDDDK EPKSSDKTHTCPPCPAPELLGGPSVFLFPPKPKDTLMISRTPEVTCVVVDVSHEDPEVKFNWYVDGVEVHNAKTKPREEQYNSTYRVVSVLTVLHQDWLNGKEYKCKVSNKALPAPIEKTISKAKGQPREPQVCTLPPSRDELTKNQVSLWCLVKGFYPSDIAVEWESNGQPENNYKTTPPVLDSDGSFFLYSKLTVDKSRWQQGNVFSCSVMHEALHNRYTQKSLSLSP light: DIVMTQSPLSLPVTPGEPASISCRSSQSLVHSNRNTYLHWYQQKPGQAPRLLIYKVSNRFSGVPDRFSGSGSGTDFTLKISRVEAEDVGVYYCGQGTQVPYTFGQGTKLEIKRTVAAPSVFIFPPSDEQLKSGTASVVCLLNNFYPREAKVQWKVDNALQSGNSQESVTEQDSKDSTYSLSSTLTLSKADYEKHKVYACEVTHQGLSSPVTKSFNRGEC

The binders below were run against T2, CD3 epsilon homodimer protein (UniProt P07766 23-126) (assay: SPR Biacore T200, CD3 epsilon homodimer immobilized; vs unaltered GLS3000;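 note: antibody variants flowed as analyte over CD3 epsilon homodimer amine-coupled to a CM4 chip, at 25 °C in HBS-EP+ running buffer, fitted with Biacore T200 Evaluation Software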).
T2 construct: construct not described; homodimer as printed; also called CD3 (CD3 epsilon)
T2 sequence (P07766 23-126): as the sequence (P07766 23-126) above

Row | KD ratio to GLS3000 (Affinity up) | Binder
6 | 2.57 | GLS3000 H27dA (Kabat) L chain altered form, one-arm antibody with CE115HA000 (antibody, human IgG1, kappa, L234A L235A, N297A, name in Kabat numbering, one-arm antibody) heavy: QVQLVESGGGVVQPGRSLRLSCAASGFTFSNAWMHWVRQAPGKGLEWVAQIKAKSNNYATYYAESVKGRFTISRDDSKNSLYLQMNSLKTEDTAVYYCRYVHYGAYYGVDAWGQGTTVTVSSASTKGPSVFPLAPSSKSTSGGTAALGCLVKDYFPEPVTVSWNSGALTSGVHTFPAVLQSSGLYSLSSVVTVPSSSLGTQTYICNVNHKPSNTKVDKKVEPKSCDKTHTCPPCPAPEAAGGPSVFLFPPKPKDTLMISRTPEVTCVVVDVSHEDPEVKFNWYVDGVEVHNAKTKPREEQYASTYRVVSVLTVLHQDWLNGKEYKCKVSNKALPAPIEKTISKAKGQPREPQVYTLPPSRCELTKNQVSLSCAVKGFYPSDIAVEWESNGQPENNYKTTPPVLDSDGSFFLVSKLTVDKSRWQQGNVFSCSVMHEALHNHYTQKSLSLSPDYKDDDDK EPKSSDKTHTCPPCPAPELLGGPSVFLFPPKPKDTLMISRTPEVTCVVVDVSHEDPEVKFNWYVDGVEVHNAKTKPREEQYNSTYRVVSVLTVLHQDWLNGKEYKCKVSNKALPAPIEKTISKAKGQPREPQVCTLPPSRDELTKNQVSLWCLVKGFYPSDIAVEWESNGQPENNYKTTPPVLDSDGSFFLYSKLTVDKSRWQQGNVFSCSVMHEALHNRYTQKSLSLSP light: DIVMTQSPLSLPVTPGEPASISCRSSQSLVASNRNTYLHWYQQKPGQAPRLLIYKVSNRFSGVPDRFSGSGSGTDFTLKISRVEAEDVGVYYCGQGTQVPYTFGQGTKLEIKRTVAAPSVFIFPPSDEQLKSGTASVVCLLNNFYPREAKVQWKVDNALQSGNSQESVTEQDSKDSTYSLSSTLTLSKADYEKHKVYACEVTHQGLSSPVTKSFNRGEC
